Measured values published in patent US20130053541A1, “METHODS FOR DISCOVERING MOLECULES THAT BIND TO PROTEINS” (LYNNTECH, INC., priority 2011, published 2013).

Target: T1, native human ESRRG protein (Homo sapiens, UniProt P62508)
T1 sequence (P62508 1-458): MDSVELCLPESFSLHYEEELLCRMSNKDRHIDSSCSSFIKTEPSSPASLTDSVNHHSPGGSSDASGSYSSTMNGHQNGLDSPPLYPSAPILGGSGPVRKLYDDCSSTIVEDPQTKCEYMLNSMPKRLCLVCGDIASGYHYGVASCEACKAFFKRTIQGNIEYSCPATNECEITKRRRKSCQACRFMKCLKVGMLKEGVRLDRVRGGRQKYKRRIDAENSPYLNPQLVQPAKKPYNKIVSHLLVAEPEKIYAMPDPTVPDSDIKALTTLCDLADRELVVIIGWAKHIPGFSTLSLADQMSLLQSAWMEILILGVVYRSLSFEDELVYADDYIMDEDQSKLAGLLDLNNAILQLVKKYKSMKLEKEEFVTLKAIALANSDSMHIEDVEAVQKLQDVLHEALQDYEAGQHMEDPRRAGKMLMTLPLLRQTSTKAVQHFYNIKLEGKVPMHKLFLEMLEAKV
Test: peptide microarray screening for ESRRG binding (Iteration 1 and 2)
Conditions: Iteration 1 primary screen
Text: The BLOSUM62 matrix was divided into Tiers based, with Tier 1 comprising “most conserved” (lowest penalty) and Tier 3 comprising “least conserved” (highest penalty) mutations observed in nature. Sequences for microarray production for the primary stage (Iteration 1) of screening for protein binding were created by permuting AA positions 4 and/or 5 only (i.e., core of sequence) of parent 8-mer peptides using Tier 1 and Tier 3 substitutions. This allows the systematic variation of the sequence in order to identify the most important motif within the larger candidate ligand sequence that is needed for binding the target protein. All peptides on the array were grown from the C→N terminal, with the exposed N-terminal amino acid masked by an acetyl group to prevent folding of the sequence and enable full presentation of the peptide to its target protein.
Screening was carried out typically by hybridization of the protein (1 μg/mL) against the array for 1 h at 4° C.; detection of bound protein was carried out using a fluorescently labeled anti-ESRRG mAb. (Direct labeling of ESRRG and alternative detection strategies are equally valid).
Highest binders (based on relative fluorescence signal) were selected and iteratively sequence expanded and arrayed (Iteration 2); and ESRRG binding sequences were selected as above. For iterative arrays, the core positions (AA 4 and 5) were kept unchanged while the outer amino acids (2, 3, 6, and/or 7) were permuted using Tier 3 substitutions.
Daughter candidate ligands and their new Tier 3 and/or Tier 1 based combinations were synthesized in situ on an addressable peptide microarray and screened against native human ESRRG protein in order to determine sequences that bind to this protein. Bound protein was detected by a fluorescently labeled anti-ESRRG mAb. Results are obtained in fluorescence intensity units which were used to rank the peptide ligands. Excess (100×) competing biological matrices (human serum, HSA/BSA or bacterial protein extract) were used as backgrounds to select for specific ligands to the protein. Other competing proteins can be added to background for specificity selection and directed evolution of ligands.
Iterative sequence expansion and arraying of 10 highest binding ligands to ESRRG from Iteration 1 was carried out and the new peptide sequences were synthesized on an array and screened against the protein, as described above. In this step, the central 2 amino acids (core) in peptide sequences were maintained unchanged while outlying amino acids (2, 3, 6, and 7) were permuted (using Tier 1 and Tier 3 substitutions) in a ‘cipher’ or ‘combination’ lock approach. Further affinity maturation of sequence was observed, with multifold enhancement in binding signal of Iteration 2 sequences (i.e., Granddaughters) compared to their respective parents from Iteration 1 (i.e., Daughters) on the same array.

Row | log2 (Sample B/Sample A) | Substance
1 | 5.40 | Ac-LLHSSKSQ-NH2 (C-terminus assumed)
2 | 7.62 | Ac-NIKVNANN-NH2 (C-terminus assumed)
3 | 5.36 | Ac-NSLRKHLL-NH2 (C-terminus assumed)
4 | 4.99 | Ac-LLHKSKSQ-NH2 (C-terminus assumed)
5 | 5.37 | Ac-AANMFLLL-NH2 (C-terminus assumed)
6 | 5.48 | Ac-AIRGALMG-NH2 (C-terminus assumed)
7 | 9.45 | Ac-IKQDHNNS-NH2 (C-terminus assumed)
8 | 7.65 | Ac-NSLLKHLL-NH2 (C-terminus assumed)
9 | 5.54 | Ac-ANNSRLLH-NH2 (C-terminus assumed)
10 | 10.84 | Ac-NSLKKHLL-NH2 (C-terminus assumed)

Same assay, conditions: Iteration 1 primary screen; fluorescence intensity units

Row | Substance | Sample A (Bkgd) Signal | Sample B (Probe) Signal
11 | AANYILLL | 13.78 | 2,012.02
12 | Ac-LLHSSKSQ-NH2 (C-terminus assumed) | 19.42 | 819.16
13 | RKALVGKY | 28.08 | 
14 | Ac-NIKVNANN-NH2 (C-terminus assumed) | 3.04 | 598.87
15 | ANNVKLLH | 52.38 | 1,718.47
16 | ANNSWLLH | 20.06 | 1,259.63
17 | ANNLSLLH | 21.54 | 1,220.01
18 | Ac-LLHKSKSQ-NH2 (C-terminus assumed) | 30.24 | 962.22
19 | RKAIFGKY | 23.63 | 
20 | ANNIQLLH | 2.12 | 
21 | Ac-AANMFLLL-NH2 (C-terminus assumed) | 42.26 | 1,752.81
22 | Ac-AIRGALMG-NH2 (C-terminus assumed) | 19.03 | 851.06
23 | AANNYLLL | 31.22 | 3,436.10
24 | LHLKGSQT | 6.97 | 
25 | Ac-IKQDHNNS-NH2 (C-terminus assumed) | 1.00 | 701.08
26 | Ac-NSLLKHLL-NH2 (C-terminus assumed) | 73.81 | 14,810.16
27 | NIKVHANN | 9.00 | 

Row | Substance | Sample A (Bkgd) Signal | Sample B (Probe) Signal
28 | LLHLQKSQ | 14.95 | 
29 | AIRVHLMG | 11.78 | 
30 | NSLRSHLL | 20.67 | 1,673.50
31 | KSLLQQLL | 88.50 | 7,385.40
32 | ANNLQLLH | 47.08 | 1,537.71
33 | ANNIWLLH | 30.52 | 1,012.72
34 | AANMLLLL | 25.96 | 1,191.86
35 | ANNSKLLH | 23.60 | 1,009.30
36 | NSLSWHLL | 25.76 | 1,042.20
37 | Ac-ANNSRLLH-NH2 (C-terminus assumed) | 31.74 | 1,480.35
38 | ANNVSLLH | 62.19 | 1,818.72
39 | ANNSQLLH | 1.00 | 
40 | AANYLLLL | 22.22 | 3,763.81
41 | ANNSSLLH | 7.39 | 1,153.13
42 | Ac-NSLKKHLL-NH2 (C-terminus assumed) | 5.04 | 9,219.14
43 | ANNLKLLH | 56.94 | 1,672.30

Next, values leading:

Row | Sample A (Bkgd) Signal | Sample B (Probe) Signal | Substance
44 | 13.51 | 1,093.06 | ANNILLLH
45 | 65.96 | 1,997.75 | ANNVLLLH
46 | 46.43 | 1,624.73 | ANNFLLLH
47 | 64.73 | 4,011.85 | AANMYLLL
48 | 20.79 | 856.14 | Ac-NSLRKHLL-NH2 (C-terminus assumed)
49 | 33.10 |  | LHLRYSQT
50 | 18.88 |  | AIRGHLMG
51 | 14.74 | 2,199.01 | AANYVLLL
52 | 23.54 |  | NNSWSLHL
53 | 14.53 | 1,321.14 | ANNSLLLH
54 | 2.42 | 9,739.76 | NSLLQHLL

Same assay, conditions: Iteration 2 iterative screen; fluorescence intensity units

Row | Substance | Sample A (Bkgd) Signal | Sample B (Probe) Signal
55 | PFKLKQGN | 1,523.23 | 6,982.96
56 | RRSYPRGR | 445.58 | 1,661.87
57 | LFKLKQDG | 277.71 | 2,776.37
58 | HYKLKQHE | 165.10 | 1,296.65
59 | LFKLKQND | 366.58 | 1,857.96
60 | EDSYPRDG | 297.83 | 5,021.94
61 | WGKLKQGE | 209.10 | 1,231.15
62 | DINFSLGI | 160.50 | 4,797.29
63 | GKSYPRHR | 553.79 | 3,049.48
64 | MYKLKQDN | 184.58 | 
65 | AHNYLLEH | 115.46 | 
66 | PWKLKQDP | 197.52 | 1,339.15
67 | PGKGHFPI | 260.71 | 
68 | VLLHYGLY | 347.96 | 1,796.19
69 | FFKGHFKF | 543.19 | 5,435.29
70 | NLLLKHPD | 216.15 | 2,297.98
71 | WNSYPRND | 292.56 | 2,198.94
72 | LFLLQQDD | 219.12 | 2,423.10
73 | DRSYPRHT | 68.94 | 
74 | HRSYPRVY | 494.92 | 2,451.98
75 | YFLLQQGP | 202.29 | 
76 | FYNMYLLN | 251.75 | 1,558.62
77 | IFLLQQDN | 238.04 | 1,007.54
78 | PDSYPRWG | 288.88 | 5,591.60

The next lines start with the values.

Row | Sample A (Bkgd) Signal | Sample B (Probe) Signal | Substance
79 | 190.35 |  | HNNYLLNN
80 | 619.96 | 2,611.56 | WRSYPRRA
81 | 805.42 | 19,001.58 | HRSYPRRG
82 | 143.58 |  | HNSYPRNE
83 | 152.44 |  | ALNFSLNW
84 | 240.19 | 1,309.00 | YHNYLLHP
85 | 121.27 |  | EESYPRDK
86 | 158.25 |  | FWNMYLNP
87 | 290.67 | 1,203.13 | RLLHYGSY
88 | 238.31 |  | FVNFSLGI
89 | 156.87 | 2,242.02 | DNNYLLLL
90 | 731.12 | 3,422.79 | NNSYPRHR
91 | 470.56 | 13,817.90 | NFNYLLPH
92 | 230.42 | 1,455.83 | FWKGHFDF
93 | 182.90 | 2,860.10 | WANYLLPP
94 | 222.13 |  | WLLLKHGL
95 | 165.50 | 1,043.90 | FFNFSLPA
